Data as given in US20230265134A1.

Biological target: Ustekinumab lambda fusion light chain (human)
Assay: LCMS of Fabs cleaved from IgG; 2 HC + 2 LC co-expressed in HEK293

% HC1-LC2 product: 0%
Substance: Panitumumab heavy chain, CH1 K147F S183K (from UniProt P01857 1-101)
